Data from patent publication US20120308580A1 (NATIONAL UNIVERSITY OF SINGAPORE, published 2012).

Columns and labels:
[1] = target: c18-27 peptide alone (free, not on HLA-A2) (Hepatitis B virus); experiment: pre-incubation with free peptide, then flow cytometry on the specific target
[2] = target: T1, HBc19-27I peptide / HLA-A201 complex on T2 cells (human; Hepatitis B virus); experiment: flow cytometry, peptide pulsed T2 cells (FIG. 8A, peptides of Table 4)
T1 construct: whole, on cells

[3] = target: T2, HBV pol, 455-463 peptide / HLA-A201 complex on T2 cells (human; Hepatitis B virus); experiment: flow cytometry, peptide pulsed T2 cells
T2 construct: whole, on cells

[4] = target: T3, Mage3, 271-279 peptide / HLA-A201 complex on T2 cells (human); experiment: flow cytometry, peptide pulsed T2 cells
T3 construct: whole, on cells; also called Mage3-271-79

[5] = target: T4, HBV env, 348-357 peptide / HLA-A201 complex on T2 cells (human; Hepatitis B virus); experiment: flow cytometry, peptide pulsed T2 cells
T4 construct: whole, on cells

[6] = target: T5, FEC11 (EBV) peptide / HLA-A201 complex on T2 cells (human; EBV); experiment: flow cytometry, peptide pulsed T2 cells
[7] = target: T6, HBV env183-191 peptide / HLA-A201 complex on cells (human; Hepatitis B virus)
[8] = target: T6, HBV env183-191 peptide / HLA-A201 …; remark: listed apart in the source
[9] = target: T2, HBV pol, 455-463 peptide / HLA-A201 …; experiment: flow cytometry, peptide pulsed T2 cells (FIG. 8A, peptides of Table 4)
[10] = target: T5, FEC11 (EBV) peptide / HLA-A201 complex …; experiment: as above

| Binder | binding result [1] | binding result [2] | binding result [3] | binding result [4] | binding result [5] | binding result [6] | binding result [7] | EC50 (read off the curve) [8] [µg] | binding result [9] | binding result [10] |
| --- | --- | --- | --- | --- | --- | --- | --- | --- | --- | --- |
| c18/A2 mAb (antibody, V domains shown, also called HBc18-27 antibody) VH: QVQLQQSGPELVKPGASVKISCKASGHTFTSYDINWVKQRPGQGLEWIGWIYPGDGSTKYNEKFKGKATLTADKSSSTAYMQLSSLTSENSAVYFCARRDYGYSYAMDYWGQGTSVTVSS VL: DIQMTQSPASLSTSVGETVTITCRASGNIHNYLAWYQQKQGKSPQLLVYNAKTLADGVPSRFSGSGSGTQFSLKINSLQPEDFGSYYCQHFWSTPFTFGSGTKLEIK | no binding (tested: 1 uM) | no binding (tested: 1 µM peptide; 0.5 µg mAb) | no binding (tested: 1 µM peptide; 0.5 µg mAb) | no binding (tested: 1 µM peptide; 0.5 µg mAb) | no binding (tested: 1 µM peptide; 0.5 µg mAb) | no binding (tested: 1 µM peptide; 0.5 µg mAb) | no binding (tested: 0.5 ug mAb in 50 ul) | – | – | – |
| E183/A2 mAb (antibody, V domains shown, also called HBe183-191 antibody; antibody against HBe183-191) VH: QVQLQQPGAEFVKPGASVRLSCKASGYTFSSYWMHWVKQRPGQGLEWIGEIDPSDSYTNYNQKFKGKATLTVDKSSSTAYMQFSSLTSEDSAVYYCATSGYDVGVDYWGQGTTLTVSS VL: DIQMTQSPASLSASVGETVTITCRASENIYSYLAWYHQKQGKSPQLLVYIAKTLAEGVPSRFSGSGSGTQFSLKIDSLQPEDVGSYYCQHHYGTPYTFGGGTKLEIK | – | no binding (tested: 1 µM peptide; 0.5 µg mAb) | – | – | – | – | – | ~0.01 | no binding (tested: 1 µM peptide; 0.5 µg mAb) | no binding (tested: 1 µM peptide; 0.5 µg mAb) |
